The text below walks through data of PMC7185567.

Data set [1] addresses APE1 (apurinic/apyrimidinic endonuclease 1) (human, UniProt P27695 1-318). As to the kind of experiment: EMSA. For orientation: Mobility shift assays separate free from complexed probe on a gel.
Another data set concerns the target T1, ISY1 (human, UniProt Q9ULR0 1-285).
T1 sequence: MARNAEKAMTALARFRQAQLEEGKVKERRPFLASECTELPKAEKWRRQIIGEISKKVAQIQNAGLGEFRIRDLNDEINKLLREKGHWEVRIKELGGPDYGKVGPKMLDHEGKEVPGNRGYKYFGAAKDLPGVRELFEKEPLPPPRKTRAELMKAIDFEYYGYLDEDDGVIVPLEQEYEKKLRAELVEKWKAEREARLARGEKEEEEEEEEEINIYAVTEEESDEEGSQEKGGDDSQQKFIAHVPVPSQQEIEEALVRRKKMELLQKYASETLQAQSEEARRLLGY
Briefly: EMSA.

Chain of APE1 (apurinic/apyrimidinic endonuclease 1) (P27695 whole entry): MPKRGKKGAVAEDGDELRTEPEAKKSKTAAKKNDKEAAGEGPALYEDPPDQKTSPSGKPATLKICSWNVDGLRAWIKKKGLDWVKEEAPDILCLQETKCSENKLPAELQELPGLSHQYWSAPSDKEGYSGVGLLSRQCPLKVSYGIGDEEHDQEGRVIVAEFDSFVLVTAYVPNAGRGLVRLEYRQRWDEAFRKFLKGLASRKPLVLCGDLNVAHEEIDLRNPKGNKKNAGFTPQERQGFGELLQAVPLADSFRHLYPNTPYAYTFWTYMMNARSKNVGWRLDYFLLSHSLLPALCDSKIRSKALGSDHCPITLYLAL

B1: 37-mer control DNA duplex (no AP site) (dsDNA)
DNA 1: CCTGCAGCTGGTGCAAAAGTATTGCGGCGTGTACGGT
DNA 2: ACCGTACACGTTTCCTTACGGGGTCACCAGCTGCAGG
Turning to B1, the binding result (in data set [1]; in the data set with ISY1) was “no binding” each time.
